{"source": "FireProtDB (doi:10.1021/bi034721x)", "proteins": {"B1": {"name": "Parvalbumin alpha wild type, P02625 (protein)", "chain": "MSMTDLLSAEDIKKAIGAFTAADSFDHKKFFQMVGLKKKSADDVKKVFHILDKDKSGFIEEDELGSILKGFSSDARDLSAKETKTLMAAGDKDGDGKIGVEEFSTLVAES"}}, "conditions": "Rattus norvegicus; pH 7.4; Thermal; DSC; sodium phosphate 10 mM; NaCl 0.20 M; whole UniProt chain shown", "note": "Several values for one entry are separate records, joined by “and”; a condition that tells them apart may be missing. Equal entries are not always repeated."}
{"protein": "B1", "values": [{"measurement": "unfolding enthalpy (calorimetric)", "result": "76 kcal/mol and 72 kcal/mol and 52 kcal/mol"}]}
